Here are results for 46 molecules from patent US20260274955A1 (JANUX THERAPEUTICS, published 2026).

For the first test, the target named is T1, Anti-CD28 Fab (SEQ ID NOs: 202, 203).
T1 construct: biotinylated and captured on neutravidin coated plates in the phage ELISA
T1 sequence (VH, as listed by the source, chain 1 of 2): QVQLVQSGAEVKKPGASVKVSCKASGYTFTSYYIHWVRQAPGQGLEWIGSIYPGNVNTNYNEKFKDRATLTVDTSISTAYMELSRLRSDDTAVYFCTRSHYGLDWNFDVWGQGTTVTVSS
T1 sequence (VL, as listed by the source, chain 2 of 2): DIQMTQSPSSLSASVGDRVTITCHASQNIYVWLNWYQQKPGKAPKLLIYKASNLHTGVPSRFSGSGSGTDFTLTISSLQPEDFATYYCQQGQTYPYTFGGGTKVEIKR
Nature of the test: phage ELISA, Fab on plate.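 Also: crude clonal phage supernatants added to wells pretreated with blocking buffer with or without CD28 antigen, then bound phage read out via HRP-linked anti-M13 antibody.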 On the technique in general: In an ELISA, binding on a coated surface is turned into a signal by an enzyme label.
Regarding YCEGHLAEYMNKCL [Phage-690], the “Anti-CD28 Fab (SEQ ID NOs: 202, 203) signal” value was determined as 1.24.

Consider YCEGHIGIYMSKCL [Phage-693], for which the “Anti-CD28 Fab (SEQ ID NOs: 202, 203) signal” value worked out at 1.23.

Turning to YCDGHSMMYMQKCL [Phage-695], the “Anti-CD28 Fab (SEQ ID NOs: 202, 203) signal” value turned out to be 1.23.

With YCDGHSQEYMSKCL [Phage-699], the “Anti-CD28 Fab (SEQ ID NOs: 202, 203) signal” value amounted to 1.21.

As for YCEGHMPEYLAKCL [Phage-707], the “Anti-CD28 Fab (SEQ ID NOs: 202, 203) signal” value turned out to be 1.18.

As for YCEGHMGEYMLKCL [Phage-735], the “Anti-CD28 Fab (SEQ ID NOs: 202, 203) signal” value worked out at 1.1.

As to YCEGHLWEYLAKCL [Phage-734], the “Anti-CD28 Fab (SEQ ID NOs: 202, 203) signal” value was 1.1.

On to YCEGHQPAYMEKCL [Phage-677], for which the “Anti-CD28 Fab (SEQ ID NOs: 202, 203) signal” value was determined as 1.27.

Turning to YCAGHSSEYIGKCL [Phage-710], the “Anti-CD28 Fab (SEQ ID NOs: 202, 203) signal” value is 1.17.

YCHGHLPQYMSKCM [Phage-700]: the “Anti-CD28 Fab (SEQ ID NOs: 202, 203) signal” value amounted to 1.21.

Take YCEGHMSIYMQKCL [Phage-683]: the “Anti-CD28 Fab (SEQ ID NOs: 202, 203) signal” value amounted to 1.25.

For YCDGHVEEYMTKCL [Phage-691], the “Anti-CD28 Fab (SEQ ID NOs: 202, 203) signal” value is 1.24.

For the molecule YCEGHAAEYLWKCL [Phage-705], the “Anti-CD28 Fab (SEQ ID NOs: 202, 203) signal” value came out at 1.18.

As to YCDGHAEEYRMKCL [Phage-678], the “Anti-CD28 Fab (SEQ ID NOs: 202, 203) signal” value was 1.27.

For the molecule YCEGHSAEHMPKCL [Phage-696], the “Anti-CD28 Fab (SEQ ID NOs: 202, 203) signal” value came out at 1.23.

Consider YCEGHIPMYMLKCM [Phage-743], for which the “Anti-CD28 Fab (SEQ ID NOs: 202, 203) signal” value worked out at 1.06.

Turning to YCEGHTQEYMQKCL [Phage-688], the “Anti-CD28 Fab (SEQ ID NOs: 202, 203) signal” value was 1.24.

Turning to YCEGHLKEYMQKCL [Phage-714], the “Anti-CD28 Fab (SEQ ID NOs: 202, 203) signal” value was found to be 1.17.

Take YCEGHAEQYMEKCL [Phage-713]: the “Anti-CD28 Fab (SEQ ID NOs: 202, 203) signal” value amounted to 1.17.

Turning to YCDGHEARYMQKCL [Phage-698], the “Anti-CD28 Fab (SEQ ID NOs: 202, 203) signal” value turned out to be 1.21.

For YCDGHSWIYMVKCL [Phage-717], the “Anti-CD28 Fab (SEQ ID NOs: 202, 203) signal” value is 1.16.

On to YCDGHLEQYMLKCL [Phage-692], for which the “Anti-CD28 Fab (SEQ ID NOs: 202, 203) signal” value came out at 1.24.

Consider YCVGHLPEYMLECM [Phage-739], for which the “Anti-CD28 Fab (SEQ ID NOs: 202, 203) signal” value is 1.08.

As for YCEGHSEMYMSKCL [Phage-741], the “Anti-CD28 Fab (SEQ ID NOs: 202, 203) signal” value was determined as 1.07.

For YCDGHLPVYMTKCL [Phage-679], the “Anti-CD28 Fab (SEQ ID NOs: 202, 203) signal” value amounted to 1.27.

Turning to YCAGHAPEYISKCL [Phage-702], the “Anti-CD28 Fab (SEQ ID NOs: 202, 203) signal” value came to 1.21.

Regarding YCDGHSFHYMAKCL [Phage-740], the “Anti-CD28 Fab (SEQ ID NOs: 202, 203) signal” value came out at 1.08.

Take YCEGHAGVYMAKCL [Phage-708]: the “Anti-CD28 Fab (SEQ ID NOs: 202, 203) signal” value amounted to 1.17.

Regarding YCDGHLSVYMSKCL [Phage-718], the “Anti-CD28 Fab (SEQ ID NOs: 202, 203) signal” value was determined as 1.15.

As to YCAGHAEEYMLKCL [Phage-737], the “Anti-CD28 Fab (SEQ ID NOs: 202, 203) signal” value stood at 1.09.

Regarding YCDGHSSVYMLKCL [Phage-680], the “Anti-CD28 Fab (SEQ ID NOs: 202, 203) signal” value was 1.26.

On to YCDGHRPEYMSKCL [Phage-706], for which the “Anti-CD28 Fab (SEQ ID NOs: 202, 203) signal” value amounted to 1.18.

Consider YCDGHSEQYMAKCL [Phage-687], for which the “Anti-CD28 Fab (SEQ ID NOs: 202, 203) signal” value worked out at 1.24.

Take YCDGHSWEYLGKCL [Phage-703]: the “Anti-CD28 Fab (SEQ ID NOs: 202, 203) signal” value is 1.2.

As to YCEGHLPQYMSKCL [Phage-719], the “Anti-CD28 Fab (SEQ ID NOs: 202, 203) signal” value came to 1.15.

For YCEGHLQEHMAKCL [Phage-684], the “Anti-CD28 Fab (SEQ ID NOs: 202, 203) signal” value amounted to 1.25.

Consider YCDGHANAYIWKCL [Phage-742], for which the “Anti-CD28 Fab (SEQ ID NOs: 202, 203) signal” value was 1.07.

Turning to YCAGHLDIYLAKCL [Phage-701], the “Anti-CD28 Fab (SEQ ID NOs: 202, 203) signal” value is 1.21.

Regarding YCEGHSTEYIQKCL [Phage-694], the “Anti-CD28 Fab (SEQ ID NOs: 202, 203) signal” value came out at 1.23.

As to YCEGHRAEYMSKCL [Phage-716], the “Anti-CD28 Fab (SEQ ID NOs: 202, 203) signal” value was 1.16.

As to YCDGHAKVYIWKCL [Phage-745], the “Anti-CD28 Fab (SEQ ID NOs: 202, 203) signal” value amounted to 1.06.

Take YCDGHAMEYMEKCL [Phage-733]: the “Anti-CD28 Fab (SEQ ID NOs: 202, 203) signal” value was 1.11.

In the case of YCAGLFEEYMSKCL [Phage-685], the “Anti-CD28 Fab (SEQ ID NOs: 202, 203) signal” value came to 1.25.

As to YCEGHAQEYMAKCL [Phage-744], the “Anti-CD28 Fab (SEQ ID NOs: 202, 203) signal” value came to 1.06.

As to YCVGHYPEYMEKCL [Phage-697], the “Anti-CD28 Fab (SEQ ID NOs: 202, 203) signal” value was 1.22.

Take YCEGHHRIYMQKCL [Phage-681]: the “Anti-CD28 Fab (SEQ ID NOs: 202, 203) signal” value came out at 1.26.

A further test has the same target. The test can be described thus: phage ELISA, Fab on plate, CD28 antigen as competitor.
Description: After panning, phage infected bacteria were plated out and colonies picked into 96 well blocks. Clonal phage was then amplified and separated from bacterial cells via centrifugation.
Clonal phage were harvested as crude supernatants and screened via standard ELISAs. […] Prior to the addition of clonal phage, wells were incubated with blocking buffer and CD28 antigen or blocking buffer alone. Without washing or aspirating, clonal phage supernatants were then added to the wells and incubated for a short time. Wells were then washed followed by detection of bound phage using a horse radish conjugated anti-M13 antibody. Clonal phage of interest were then sent for sequence analysis.
As for YCEGHLAEYMNKCL [Phage-690], the “Anti-CD28 Fab signal in the presence of CD28” value (from here on “Anti-CD28 Fab signal”) was 0.07.

As to YCEGHIGIYMSKCL [Phage-693], the “Anti-CD28 Fab signal” value turned out to be 0.07.

With YCDGHSMMYMQKCL [Phage-695], the “Anti-CD28 Fab signal” value was determined as 0.06.

Consider YCDGHSQEYMSKCL [Phage-699], for which the “Anti-CD28 Fab signal” value was 0.06.

YCEGHMPEYLAKCL [Phage-707]: the “Anti-CD28 Fab signal” value was 0.07.

In the case of YCEGHMGEYMLKCL [Phage-735], the “Anti-CD28 Fab signal” value was determined as 0.06.

YCEGHLWEYLAKCL [Phage-734]: the “Anti-CD28 Fab signal” value was 0.05.

With YCEGHQPAYMEKCL [Phage-677], the “Anti-CD28 Fab signal” value was determined as 0.06.

Turning to YCAGHSSEYIGKCL [Phage-710], the “Anti-CD28 Fab signal” value is 0.06.

Turning to YCHGHLPQYMSKCM [Phage-700], the “Anti-CD28 Fab signal” value was determined as 0.06.

On to YCEGHMSIYMQKCL [Phage-683], for which the “Anti-CD28 Fab signal” value stood at 0.07.

Take YCDGHVEEYMTKCL [Phage-691]: the “Anti-CD28 Fab signal” value is 0.07.

Take YCEGHAAEYLWKCL [Phage-705]: the “Anti-CD28 Fab signal” value turned out to be 0.09.

With YCDGHAEEYRMKCL [Phage-678], the “Anti-CD28 Fab signal” value was determined as 0.08.

Take YCEGHSAEHMPKCL [Phage-696]: the “Anti-CD28 Fab signal” value was 0.09.

For YCEGHIPMYMLKCM [Phage-743], the “Anti-CD28 Fab signal” value was determined as 0.09.

For YCEGHTQEYMQKCL [Phage-688], the “Anti-CD28 Fab signal” value was determined as 0.07.

Regarding YCEGHLKEYMQKCL [Phage-714], the “Anti-CD28 Fab signal” value is 0.07.

Take YCEGHAEQYMEKCL [Phage-713]: the “Anti-CD28 Fab signal” value was found to be 0.08.

For the molecule YCDGHEARYMQKCL [Phage-698], the “Anti-CD28 Fab signal” value is 0.07.

Turning to YCDGHSWIYMVKCL [Phage-717], the “Anti-CD28 Fab signal” value was found to be 0.06.

For the molecule YCDGHLEQYMLKCL [Phage-692], the “Anti-CD28 Fab signal” value came to 0.09.

For YCVGHLPEYMLECM [Phage-739], the “Anti-CD28 Fab signal” value turned out to be 0.07.

Take YCEGHSEMYMSKCL [Phage-741]: the “Anti-CD28 Fab signal” value was found to be 0.09.

YCDGHLPVYMTKCL [Phage-679]: the “Anti-CD28 Fab signal” value came to 0.07.

For the molecule YCAGHAPEYISKCL [Phage-702], the “Anti-CD28 Fab signal” value was 0.07.

Regarding YCDGHSFHYMAKCL [Phage-740], the “Anti-CD28 Fab signal” value amounted to 0.06.

In the case of YCEGHAGVYMAKCL [Phage-708], the “Anti-CD28 Fab signal” value stood at 0.05.

Consider YCDGHLSVYMSKCL [Phage-718], for which the “Anti-CD28 Fab signal” value worked out at 0.07.

On to YCAGHAEEYMLKCL [Phage-737], for which the “Anti-CD28 Fab signal” value worked out at 0.07.

Take YCDGHSSVYMLKCL [Phage-680]: the “Anti-CD28 Fab signal” value was determined as 0.06.

Take YCDGHRPEYMSKCL [Phage-706]: the “Anti-CD28 Fab signal” value turned out to be 0.07.

YCDGHSEQYMAKCL [Phage-687]: the “Anti-CD28 Fab signal” value was 0.06.

As to YCDGHSWEYLGKCL [Phage-703], the “Anti-CD28 Fab signal” value amounted to 0.05.

Turning to YCEGHLPQYMSKCL [Phage-719], the “Anti-CD28 Fab signal” value was determined as 0.09.

For YCEGHLQEHMAKCL [Phage-684], the “Anti-CD28 Fab signal” value was found to be 0.05.

Take YCDGHANAYIWKCL [Phage-742]: the “Anti-CD28 Fab signal” value turned out to be 0.09.

On to YCAGHLDIYLAKCL [Phage-701], for which the “Anti-CD28 Fab signal” value worked out at 0.07.

For YCEGHSTEYIQKCL [Phage-694], the “Anti-CD28 Fab signal” value was 0.09.

Consider YCEGHRAEYMSKCL [Phage-716], for which the “Anti-CD28 Fab signal” value came out at 0.09.

As for YCDGHAKVYIWKCL [Phage-745], the “Anti-CD28 Fab signal” value was 0.08.

As to YCDGHAMEYMEKCL [Phage-733], the “Anti-CD28 Fab signal” value came to 0.08.

On to YCAGLFEEYMSKCL [Phage-685], for which the “Anti-CD28 Fab signal” value amounted to 0.06.

In the case of YCEGHAQEYMAKCL [Phage-744], the “Anti-CD28 Fab signal” value worked out at 0.08.

With YCVGHYPEYMEKCL [Phage-697], the “Anti-CD28 Fab signal” value turned out to be 0.07.

In the case of YCEGHHRIYMQKCL [Phage-681], the “Anti-CD28 Fab signal” value worked out at 0.07.
